This passage reports abundance fitness results from the Human Domainome abundance scans (Beltran et al. 2025).

± gives the uncertainty stated by the source.

First the molecules themselves.
B1: Zinc finger protein ZIC 2, residues 250 to 295; numbered along this chain, O95409 (parent)
chain: QCIKQELICKWIDPEQLSNPKKSCNKTFSTMHELVTHVSVEHVGGP

The data set covers variants of B1. The data set is described as follows: abundance fitness (aPCA) (normalised: wild type 0, dead -1); higher = more abundant; growth selection in yeast, the domain comes from the species named. The conditions noted are these: Homo sapiens.
Take QCIKQELICKWIDPEQLSNPKVSCNKTFSTMHELVTHVSVEHVGGP [K22V]: the abundance fitness is 0.037 ± 0.089. To QCIKQELICKWIDPEQLSNPKWSCNKTFSTMHELVTHVSVEHVGGP [K22W] belongs -0.404 ± 0.096. The result for QCIKQELICKWIDPEQLSNPKNSCNKTFSTMHELVTHVSVEHVGGP [K22N] reads 0.224 ± 0.12; that for QCIKQELICKWIDPEQLSNPKMSCNKTFSTMHELVTHVSVEHVGGP [K22M], -0.126 ± 0.1; that for QCIKQELICKWIDPEQLSNPKSSCNKTFSTMHELVTHVSVEHVGGP [K22S], -0.102 ± 0.091. As to QCIKQELICKWIDPEQLSNPKESCNKTFSTMHELVTHVSVEHVGGP [K22E], the abundance fitness is -0.285 ± 0.11. To QCIKQELICKWIDPEQLSNPKFSCNKTFSTMHELVTHVSVEHVGGP [K22F] belongs -0.332 ± 0.11; to QCIKQELICKWIDPEQLSNPKLSCNKTFSTMHELVTHVSVEHVGGP [K22L], -0.089 ± 0.086; to QCIKQELICKWIDPEQLSNPKDSCNKTFSTMHELVTHVSVEHVGGP [K22D], -0.035 ± 0.13. The result for QCIKQELICKWIDPEQLSNPKPSCNKTFSTMHELVTHVSVEHVGGP [K22P] reads -0.095 ± 0.1; that for QCIKQELICKWIDPEQLSNPKGSCNKTFSTMHELVTHVSVEHVGGP [K22G], -0.126 ± 0.088. On to QCIKQELICKWIDPEQLSNPKTSCNKTFSTMHELVTHVSVEHVGGP [K22T], for which the abundance fitness was -0.015 ± 0.1. Consider QCIKQELICKWIDPEQLSNPKCSCNKTFSTMHELVTHVSVEHVGGP [K22C], for which the abundance fitness was -0.349 ± 0.11.

Regarding QCIKQELICKWIDPEQLSNPKRSCNKTFSTMHELVTHVSVEHVGGP [K22R], the abundance fitness came out at 0.124 ± 0.086. The result for QCIKQELICKWIDPEQLSNPKYSCNKTFSTMHELVTHVSVEHVGGP [K22Y] reads -0.376 ± 0.15; that for QCIKQELICKWIDPEQLSNPKASCNKTFSTMHELVTHVSVEHVGGP [K22A], -0.175 ± 0.092; that for QCIKQELICKWIDPEQLSNPKHSCNKTFSTMHELVTHVSVEHVGGP [K22H], -0.006 ± 0.12. The result for QCIKQELICKWIDPEQLSNPKQSCNKTFSTMHELVTHVSVEHVGGP [K22Q] reads -0.166 ± 0.099; that for QCIKQELICKWIDPEQLRNPKKSCNKTFSTMHELVTHVSVEHVGGP [S18R], -0.198 ± 0.085; that for QCIKQELICKWIDPEQLTNPKKSCNKTFSTMHELVTHVSVEHVGGP [S18T], 0.118 ± 0.099. To QCIKQELICKWIDPEQLVNPKKSCNKTFSTMHELVTHVSVEHVGGP [S18V] belongs -0.485 ± 0.092. With QCIKQELICKWIDPEQLYNPKKSCNKTFSTMHELVTHVSVEHVGGP [S18Y], the abundance fitness is -0.317 ± 0.12.

QCIKQELICKWIDPEQLWNPKKSCNKTFSTMHELVTHVSVEHVGGP [S18W]: the abundance fitness is -0.265 ± 0.096.

For QCIKQELICKWIDPEQLSNDKKSCNKTFSTMHELVTHVSVEHVGGP [P20D], the abundance fitness amounted to 0.057 ± 0.12. For QCIKQELICKWIDPEQLSNVKKSCNKTFSTMHELVTHVSVEHVGGP [P20V], the abundance fitness is -0.111 ± 0.089. To QCIKQELICKWIDPEQLSNNKKSCNKTFSTMHELVTHVSVEHVGGP [P20N] belongs -0.121 ± 0.12; to QCIKQELICKWIDPEQLSNIKKSCNKTFSTMHELVTHVSVEHVGGP [P20I], -0.498 ± 0.13; to QCIKQELICKWIDPEQLSNHKKSCNKTFSTMHELVTHVSVEHVGGP [P20H], -0.883 ± 0.14. On to QCIKQELICKWIDPEQLSNWKKSCNKTFSTMHELVTHVSVEHVGGP [P20W], for which the abundance fitness was -0.521 ± 0.096. The result for QCIKQELICKWIDPEQLSNLKKSCNKTFSTMHELVTHVSVEHVGGP [P20L] reads -0.184 ± 0.092; that for QCIKQELICKWIDPEQLSNEKKSCNKTFSTMHELVTHVSVEHVGGP [P20E], -0.046 ± 0.12; that for QCIKQELICKWIDPEQLSNKKKSCNKTFSTMHELVTHVSVEHVGGP [P20K], -0.233 ± 0.12.

QCIKQELICKWIDPEQLSNYKKSCNKTFSTMHELVTHVSVEHVGGP [P20Y]: the abundance fitness was -0.621 ± 0.15. To QCIKQELICKWIDPEQLSNCKKSCNKTFSTMHELVTHVSVEHVGGP [P20C] belongs -0.832 ± 0.11; to QCIKQELICKWIDPEQLSNMKKSCNKTFSTMHELVTHVSVEHVGGP [P20M], -0.076 ± 0.11; to QCIKQELICKWIDPEQLSNAKKSCNKTFSTMHELVTHVSVEHVGGP [P20A], -0.235 ± 0.094. Regarding QCIKQELICKWIDPEQLSNTKKSCNKTFSTMHELVTHVSVEHVGGP [P20T], the abundance fitness is -0.554 ± 0.11. The result for QCIKQELICKWIDPEQLSNRKKSCNKTFSTMHELVTHVSVEHVGGP [P20R] reads -0.416 ± 0.086; that for QCIKQELICKWIDPEQLSNQKKSCNKTFSTMHELVTHVSVEHVGGP [P20Q], -0.264 ± 0.11. To QCIKQELICKWIDPEQLSNFKKSCNKTFSTMHELVTHVSVEHVGGP [P20F] belongs -0.356 ± 0.12. To QCIKQELICKWIDPEQLSNPCKSCNKTFSTMHELVTHVSVEHVGGP [K21C] belongs -0.673 ± 0.1; to QCIKQELICKWIDPEQLSNPLKSCNKTFSTMHELVTHVSVEHVGGP [K21L], -0.091 ± 0.089; to QCIKQELICKWIDPEQLSNPWKSCNKTFSTMHELVTHVSVEHVGGP [K21W], -0.102 ± 0.098. Consider QCIKQELICKWIDPEQLSNPRKSCNKTFSTMHELVTHVSVEHVGGP [K21R], for which the abundance fitness is -0.302 ± 0.086.

Turning to QCIKQELICKWIDPEQLSNPVKSCNKTFSTMHELVTHVSVEHVGGP [K21V], the abundance fitness is -0.116 ± 0.089. To QCIKQELICKWIDPEQLSNPNKSCNKTFSTMHELVTHVSVEHVGGP [K21N] belongs 0.314 ± 0.11. To QCIKQELICKWIDPEQLSNPFKSCNKTFSTMHELVTHVSVEHVGGP [K21F] belongs 0.01 ± 0.11; to QCIKQELICKWIDPEQLSNPAKSCNKTFSTMHELVTHVSVEHVGGP [K21A], -0.008 ± 0.09. The result for QCIKQELICKWIDPEQLSNPMKSCNKTFSTMHELVTHVSVEHVGGP [K21M] reads -0.203 ± 0.13. On to QCIKQELICKWIDPEQLSNPPKSCNKTFSTMHELVTHVSVEHVGGP [K21P], for which the abundance fitness turned out to be 0.028 ± 0.1.

As for QCIKQELICKWIDPEQLSNPYKSCNKTFSTMHELVTHVSVEHVGGP [K21Y], the abundance fitness is -0.095 ± 0.11.

With QCIKQELICKWIDPEQLSNPSKSCNKTFSTMHELVTHVSVEHVGGP [K21S], the abundance fitness is -0.178 ± 0.09.

In the case of QCIKQELICKWIDPEQLSNPIKSCNKTFSTMHELVTHVSVEHVGGP [K21I], the abundance fitness is -0.153 ± 0.099. To QCIKQELICKWIDPEQLSNPEKSCNKTFSTMHELVTHVSVEHVGGP [K21E] belongs 0.078 ± 0.1; to QCIKQELICKWIDPEQLSNPQKSCNKTFSTMHELVTHVSVEHVGGP [K21Q], 0.126 ± 0.12.

With QCIKQELICKWIDPEQLSNPTKSCNKTFSTMHELVTHVSVEHVGGP [K21T], the abundance fitness was -0.168 ± 0.1.
